We go through four molecules from patent US5597719, “Interaction of RAF-1 and 14-3-3 proteins” (Onyx Pharmaceuticals, Inc., dated 1997).

The target of test [1] is GAL4 DNA-binding domain alone (Saccharomyces cerevisiae (strain ATCC …, UniProt P04386)). In words: yeast two-hybrid. The source says:
However, interaction between 14-3-3β and the bcr gene product, which itself has endogenous kinase activity, was detected.
The Raf-1 coding sequence was isolated by PCR amplification of a human placental cDNA library purchased from Stratagene (San Diego, Calif.) as described by MacDonald et al. (1993) *Mol. Cell Biol.* 13: 16.15. For use in the two hybrid screen (Chien et al. (1991) *Proc. Natl. Acad. Sci. USA* 88: 9578), the Raf-1 gene was fused to sequence encoding the GAL4-DNA binding domain by digesting pGEM Raf-I with NcoI and SacI to liberate the Raf-1 coding sequence and subcloning into the pGBT8 plasmid (Hannon et al. (1993) *Genes & Dev.* 7: 2378) digested also with Nco I and Sac I. Yeast (*S. cerevisiae*) of strain YGH-1 (Hannon et al. (1993) op.cit.) were transformed with pGBT8 Raf1, and the resultant strain was transformed with a HeLa cell cDNA library encoding fusions with the GAL4 activation domain in the plasmid pGAD (Chien et al. (1991) *Proc. Natl. Acad. Sci.* (USA) 88: 9578). The YGH-1 strain contains two reported genes, HIS3 and lacZ, which allow selection of cDNAs encoding proteins capable of interacting with the gene of interest, in this case, Raf-1. The first selection was by the ability to grow on plates lacking histidine. Positive colonies were then tested for production of β-galactodidase using X-gal as substrate as described by Hannon et al. op.cit. […]

Test [2] has as its target full-length Raf-1 (wildtype Raf) (human). In words: cell-based or functional assay.
The target in test [3] is Ras-binding domain of Raf (aa51-aa131) (human). In words: ELISA. A general note: In an ELISA, binding on a coated surface is turned into a signal by an enzyme label.

B1: human P1A2 (14-3-3ζ) fused with GAL4 activation domain (other)
chain: MDKNELVQKAKLAEQAERYDDMAACMKSVTEQGAELSNEERNLLSVAYKNVVGARRSSWRVVSSIEQKTEGAEKKQQMAREYREKIETELRDICNDVLSLLEKFLIPNASQAESKVFYLKMKGDYYRYLAEVAAGDDKKGIVDQSQQAYQEAFEISKKEMQPTHPIRLGLALNFSVFYYEILNSPEKACSLAKTAFDEAIAELDTLSEESYKDSTLIMQLLRDNLTLWTSDTQGDEAEAGEGGEN
B1: in test [1], the binding result is “no binding”.

B2: 14-3-3ζ (not fused to GAL4) (other)
chain: B1 chain
Regarding B2, the “Raf activity in cells containing the 14-3-3 proteins” value in test [2] is 2 fold increase over background.

B3: human HS1 1054 (14-3-3β) fused with GAL4 activation domain (other)
chain: MTMDKSELVQKAKLAEQAERYDDMAAAMKAVTEQGHELSNEERNLLSVAYKNVVGARRSSWRVISSIEQKTERNEKKQQMGKEYREKIEAELQDICNDVLELLDKYLIPNATQPESKVFYLKMKGDYFRYLSEVASGDNKQTTVSNSQQAYQEAFEISKKEMQPTHPIRLGLALNFSVFYYEILNSPEKACSLAKTAFDEAIAELDTLNEESYKDSTLIMQLLRDNLTLWTSENQGDEGDAGEGEN
Regarding B3, in test [1], the binding result is listed as “no binding”.

B4: 14-3-3β (not fused to GAL4) (other)
chain: B3 chain
Take B4: the “Raf activity in cells containing the 14-3-3 proteins” value in test [2] was 2 fold increase over background. In test [3], the binding result is given as “no binding”.
